Laboratory results published in article PMC6363177, “R pyocin tail fiber structure reveals a receptor-binding domain with a lectin fold” (PLoS ONE, 2019).

B1: R2-subtype N-terminally truncated tail fiber fragment (R2-NTF) (domain or fragment)
chain: YVRVSYAANPSIREWLPWQRCDIGGSFTKEADGELPGGVNLDSMVTSGWWSQSFTAQAASGANYPIVRAGLLHVYAASSNFIYQTYQAYDGESFYFRCRHSNTWFPWRRMWHGGDFNPSDYLLKSGFYWNALPGKPATFPPSAHNHDVGQLTSGILPLARGGVGSNTAAGARSTIGAGVPATASLGASGWWRDNDTGLIRQWGQVTCPADADASITFPIPFPTLCLGGYANQTSAFHPGTDASTGFRGATTTTAVIRNGYFAQAVLSWEAFGR
notes: R2-subtype pyocin tail fiber PA0620 of Pseudomonas aeruginosa PAO1, residues Y419-R691; numbering relative to native PA0620; Cloned into pMCSG11 (LIC); 32.2 kDa printed; Removal of the tag before crystallisation is not mentioned; also called R2-subtype pyocin tail fiber distal region; PA0620 Y419-R691; source: E. coli BL21 (DE3), co-expressed with chaperone PA0621; in lysate for the Ni-IMAC …
B2: Selenomethionine-labelled R2-NTF (domain or fragment)
chain: B1 chain
modifications: selenomethionine in place of methionine
notes: R2-subtype pyocin tail fiber PA0620 of Pseudomonas aeruginosa PAO1, residues Y419-R691 (plasmid pMCSG11/R2-NTF, as m1); numbering relative to native PA0620; Same construct as m1, made in another host and labelled with selenomethionine for Se-SAD phasing; also called Sel-met R2-NTF; selenomethionine replaced R2-NTF; source: E. coli B834 (DE3) methionine auxotroph, co-expressed with PA0621 in M9 …

What was measured:
[1] = biological target: the molecule itself; experiment: SEC; analytical Sepharose-200 10/300 column, elution volumes compared with SEC standards (Biorad); samples diluted to 1 mg/mL in 50mM Tris pH 8.0, 150mM NaCl, 5% glycerol
[2] = biological target: the molecule itself; experiment: crystal structure; vapor diffusion crystals at 16°C; trimer formed by crystallographic symmetry, also checked with PISA

Protein	stoichiometry N [1]	stoichiometry N [2]
B1	3	
B2		3
